Test results taken from the supplement of paper PMC9876800.

System: peptide library, one residue held at a place counted from the S/T acceptor
Experiment: relative phosphorylation of the sub-library (ratio to the mean residue at this position); higher = residue favoured
Settings: human
Procedure, shortened: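 Purified recombinant kinases (human or orthologue constructs) were incubated in 384-well plates with biotinylated degenerate peptide sub-libraries, each fixing one residue at one position around a central Ser/Thr. Peptides were at 50 μM, with 50 μM ATP spiked with γ-32P-ATP, for 90 min under kinase-specific conditions. Spots on streptavidin membranes were phosphorimaged and quantified by densitometry. Relative sub-library phosphorylation is a ratio to the mean residue at that position.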

Chain of OXSR1, construct: Full length (O95747 whole entry, looked up): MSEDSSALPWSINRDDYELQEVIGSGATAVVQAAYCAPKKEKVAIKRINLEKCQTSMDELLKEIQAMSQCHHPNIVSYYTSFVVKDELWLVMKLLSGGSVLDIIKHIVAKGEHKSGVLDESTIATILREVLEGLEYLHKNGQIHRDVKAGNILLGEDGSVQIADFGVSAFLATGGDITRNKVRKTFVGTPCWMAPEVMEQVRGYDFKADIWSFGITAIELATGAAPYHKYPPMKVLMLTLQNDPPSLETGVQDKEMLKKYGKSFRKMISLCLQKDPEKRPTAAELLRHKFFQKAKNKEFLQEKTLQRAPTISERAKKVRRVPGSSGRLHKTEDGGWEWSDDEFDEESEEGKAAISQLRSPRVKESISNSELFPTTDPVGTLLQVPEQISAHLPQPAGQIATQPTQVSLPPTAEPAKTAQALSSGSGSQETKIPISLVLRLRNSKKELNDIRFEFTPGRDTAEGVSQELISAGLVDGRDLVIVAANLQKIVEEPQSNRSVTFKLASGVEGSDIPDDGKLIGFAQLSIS
Chain of AKT2, construct: Full length (P31751 whole entry, looked up): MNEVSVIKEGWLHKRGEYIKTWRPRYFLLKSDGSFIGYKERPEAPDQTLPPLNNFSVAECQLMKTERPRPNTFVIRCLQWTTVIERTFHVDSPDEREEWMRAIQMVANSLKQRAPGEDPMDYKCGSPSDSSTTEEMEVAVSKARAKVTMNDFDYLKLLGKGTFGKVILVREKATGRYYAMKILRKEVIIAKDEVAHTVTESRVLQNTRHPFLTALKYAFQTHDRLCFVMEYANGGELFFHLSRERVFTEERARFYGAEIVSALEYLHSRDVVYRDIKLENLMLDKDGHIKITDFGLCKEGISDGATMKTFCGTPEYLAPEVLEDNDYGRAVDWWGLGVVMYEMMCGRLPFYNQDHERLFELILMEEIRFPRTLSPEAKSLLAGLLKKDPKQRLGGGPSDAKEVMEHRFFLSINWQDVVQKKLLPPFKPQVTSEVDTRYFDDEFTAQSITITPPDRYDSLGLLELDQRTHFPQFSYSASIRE

OXSR1, construct: Full length (from UniProt O95747)
relative phosphorylation
Settings	at +1	at +2	at +3	at +4	at -1	at -2	at -3	at -4	at -5
A fixed	0.587	0.646	1.07	1	0.862	0.695	0.845	1.05	1.23
D fixed	0.346	0.325	0.493	0.683	1.83	1.34	1.26	1.9	1.83
E fixed	0.382	0.249	0.487	0.666	1.19	1.31	1.27	1.8	1.52
F fixed	1.08	0.495	0.574	0.702	0.643	0.693	0.48	0.722	0.76
G fixed	0.509	1.09	1.42	1.37	0.801	1.31	1.17	1.41	1.4
H fixed	1.21	3.55	1.17	1.07	1.67	1.43	1.57	1	0.976
I fixed	1.69	0.541	0.443	0.596	0.447	0.333	0.36	0.329	0.386
K fixed	0.838	1.25	2.23	1.93	0.975	0.584	0.783	0.964	1.06
L fixed	1.14	0.459	0.531	0.634	0.931	0.432	0.384	0.416	0.519
M fixed	1.36	0.76	0.613	0.78	0.968	0.531	0.51	0.633	0.581
N fixed	0.689	1.18	1.1	0.947	1.64	1.69	2.04	1.14	0.96
P fixed	0.351	0.677	1.47	1.29	0.494	0.673	1.3	1.22	1.4
Q fixed	1.06	1	0.907	1.06	0.987	1.61	1.18	1.09	0.757
R fixed	1.04	2.08	2.47	1.7	1.33	0.677	0.846	0.994	1.12
V fixed	1.53	0.678	0.556	0.63	0.446	0.378	0.552	0.535	0.549
W fixed	1.99	0.782	0.72	1.09	0.706	0.84	0.663	0.864	0.852
Y fixed	1.2	1.23	0.739	0.856	1.09	2.46	1.79	0.937	1.11
pThr fixed	0.911	0.562	0.699	0.507	0.94	1.06	1.43	1.49	1.46
pTyr fixed	0.769	0.428	0.728	0.82	2.18	1.52	1.41	1.53	1.82

AKT2, construct: Full length (from UniProt P31751)
relative phosphorylation
Settings	at +1	at +2	at +3	at +4	at -1	at -2	at -3	at -4	at -5
A fixed	0.789	1.29	1.06	0.923	0.951	0.988	0.523	1.15	1.09
D fixed	0.487	0.644	0.589	0.615	0.663	0.303	0.213	0.571	0.519
E fixed	0.448	0.575	0.584	0.595	0.457	0.304	0.231	0.647	0.536
F fixed	1.78	0.673	0.86	0.681	0.795	0.446	0.288	0.7	0.931
G fixed	0.854	1.36	1.27	1.23	1.16	0.615	0.351	1.19	1.05
H fixed	0.947	1.76	1.39	1.15	1.28	0.822	0.546	1.03	1.04
I fixed	1.14	0.734	0.617	0.687	0.43	0.438	0.274	0.661	0.711
K fixed	1.02	1.33	1.79	1.96	1.36	2.83	1.91	1.98	1.67
L fixed	1.11	0.872	0.859	0.736	0.772	0.784	0.29	0.797	0.838
M fixed	1.35	0.8	0.735	0.814	0.984	0.488	0.291	0.888	0.872
N fixed	1.1	1.23	0.919	1.06	1.67	0.547	0.304	0.914	0.807
P fixed	0.722	0.925	1.02	1.64	1.12	0.385	0.34	0.972	1.02
Q fixed	1.19	0.881	0.964	1.11	1.12	0.657	0.48	0.986	0.841
R fixed	1.12	1.41	1.82	1.68	1.61	6.03	10.1	2.35	2.51
V fixed	1.01	0.92	0.743	0.64	0.523	0.486	0.275	0.701	0.736
W fixed	0.972	0.723	0.888	0.705	0.737	0.437	0.294	0.674	0.907
Y fixed	0.971	0.878	0.887	0.765	1.38	0.441	0.311	0.803	0.927
pThr fixed	0.772	1.1	0.808	0.932	0.441	0.482	0.346	0.752	0.776
pTyr fixed	0.884	1.13	1.01	0.71	0.83	0.425	0.32	0.641	0.809
